B1: M9-F09 (Fab, V domains shown)
VH: EVQLLESGGGLVQPGGSLRLSCAASGFTFSSYPMGWVRQAPGKGLEWVSRISSSGGMTIYADSVKGRFTISRDNSKNTLYLQMNSLRAEDTAVYYCARDDWNVGMDVWGQGTTVTVSS
VL: DIQMTQSPSSLSASVGDRVTITCRASQSISSYLNWYQQKPGKAPKLLIYAASSLQSGVPSKFSGSGSGTDYTLTISSLQPEDFATYYCQQTYTTPWTFGQGTKVEIK
B2: M6-G05 (Fab, V domains shown)
VH: EVQLLESGGGLVQPGGSLRLSCAASGFTFSRYRMVWVRQAPGKGLEWVSSIYPSGGMTAYADSVKGRFTISRDNSKNTLYLQMNSLRAEDTAVYYCARDAVGIGDAFDIWGQGTMVTVSS
VL: DIQMTQSPSSLSASVGDRVTITCRASQSISTYLNWYQLKPGKAPKLLIYNAFSMERGVPSTISGSGSGTDFTLTISSLQPEDFATYYCQQSYTTPTTFGQGTKVEIK
B3: M9-F08 (Fab, V domains shown)
VH: EVQLLESGGGLVQPGGSLRLSCAASGFTFSPYAMTWVRQAPGKGLEWVSVIYPSGGFTDYADSVKGRFTISRDNSKNTLYLQMNSLRAEDTAMYYCARASGSYLDAFDIWGQGTMVTVSS
VL: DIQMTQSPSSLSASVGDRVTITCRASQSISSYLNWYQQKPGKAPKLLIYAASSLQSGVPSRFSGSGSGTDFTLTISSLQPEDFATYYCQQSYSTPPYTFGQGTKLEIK
B4: M9-G08 (Fab, V domains shown)
VH: EVQLLESGGGLVQPGGSLRLSCAASGFTFSYYTMLWVRQAPGKGLEWVSSIYPSGGFTMYADSVKGRFTISRDNSKNTLYLQMNSLRAEDTAVYYCARVDTAMAMIDYWGQGTLVTVSS
VL: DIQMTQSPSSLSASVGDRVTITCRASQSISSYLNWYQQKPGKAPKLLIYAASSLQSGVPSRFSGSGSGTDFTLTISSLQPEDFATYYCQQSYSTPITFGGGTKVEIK
B5: M8-H04 (Fab, V domains shown)
VH: EVQLLESGGGLVQPGGSLRLSCAASGFTFSGYWMGWVRQAPGKGLEWVSSISSSGGWTQYADSVKGRFTISRDNSKNTLYLQMNSLRAEDTATYYCARDDEIAAGGAFDIWGQGAMVTVSS
VL: DIQMTQSPSSLSASIGDRVTITCRASQYISTYLNWYEQKPGKAPKLLIYGTSSLQSGVPSRFSGSGSGTEFSLTISSLQPEDFATYYCQQSFTTPFTFGQGTKLEIK
B6: M6-D08 (Fab, V domains shown)
VH: EVQLLESGGGLVQPGGSLRLSCAASGFTFSRYHMVWVRQAPGKGLEWVSSISPSGGWTNYADSVKGRFTISRDNSKNTLYLQMNSLRAEDTAMYYCAREMATIAGQFDPWGQGTLVTVSS
VL: DIQMTQSPSSLSASVGDRVTITCRASQSISSYLNWYQQKPGKAPKLLIYGASSLQSGVPSRFSGSGSGTDFTLTISSLQPEDSATYYCQQSYTRWTFGQGTKVEIK
B7: M8-G09 (Fab, V domains shown)
VH: EVQLLESGGGLVQPGGSLRLSCAASGFTFSLYEMLWVRQAPGKGLEWVSVIYPSGGYTDYADSVKGRFTISRDNSKNTLYLQMNSLRAEDMAVYYCARSFSGFGEIDYWGQGTLVTVSS
VL: DIQMTQSPSSLSASVGDTVTITCRASQGVSYYLAWFQQKPGKAPKSLIYGASSLQSGVPSKFSGSGSGTVFTLTISSLQPDDFATYYCQQYNTYPPTFGQGTRLDIK
B8: M9-E04 (Fab, V domains shown)
VH: EVQLLESGGGLVQPGGSLRLSCAASGFTFSEYDMMWVRQAPGKGLEWVSSIGSSGGMTYYADSVKGRFTISRDNSKNTLYLQMNSLRAEDTAVYYCARDQVAAAAIDYWGQGTLVTVSS
VL: DIQMIQSPSSLSASVGDRVTITCRASQSISGYLNWYQQRSGKAPKLLIFAASNLQTGVPSRFSGSGSGTDFTLTINNLQPEDFATYYCQQSHTPPKTFGPGTKVDIK
B9: M9-F10 (Fab, V domains shown)
VH: EVQLLESGGGLVQPGGSLRLSCAASGFTFSDYDMEWVRQAPGKGLEWVSSISPSGGSTIYADSVKGRFTISRDNSKNTLYLQMNSLRAEDTAVYYCARQGLLTAFDIWGQGTMVTVSS
VL: DIQMTQSPSSLSASVGDRVTITCRASQSINTYLNWYQQKPGKAPKVLIHAASTLESGVPSRFSGSGSGTDFTLTISSLQPEDFATYYCQQSYSTPYTFGQGTKLEVR
B10: M9-D08 (Fab, V domains shown)
VH: EVQLLESGGGLVQPGGSLRLSCAASGFTFSWYKMMWVRQAPGKGLEWVSSIYPSGGWTNYADSVKGRFTISRDNSKNTLYLQMNSLRAEDTAVYYCTRGSPWGDDAFDIWGQGTMVTVSS
VL: DIQMTQSPSSLSASVGDRVTLTCRASRTISFYLNWYQQKAGKAPELLIYGGSSLHSGVPSRFSGSGSGTDFSLTISNLQPEDIAVYYCQQSFSSPWTFGQGTKVEIK
B11: M8-E06 (Fab, V domains shown)
VH: EVQLLESGGGLVQPGGSLRLSCAASGFTFSHYFMTWVRQAPGKGLEWVSSIVPSGGMTQYADSVKGRFTISRDNSKNTLYLQMNSLRAEDTAVYYCARDSYSSSWFDIWGQGTMVTVSS
VL: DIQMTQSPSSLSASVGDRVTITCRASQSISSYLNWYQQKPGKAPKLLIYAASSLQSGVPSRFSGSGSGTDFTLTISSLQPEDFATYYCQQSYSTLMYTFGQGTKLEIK
B12: M9-A08 (Fab, V domains shown)
VH: EVQLLESGGGLVQPGGSLRLSCAASGFTFSAYEMWWVRQAPGKGLEWVSYIGSSGGSTSYADSVKGRFTISRDNSKNTLYLQMNSLRAEDTAVYYCTGGNSSSFDAFDIWGQGTMVTVSS
VL: DIQMTQSPSSLSASVGDRVTVTCRASQRISTYLNWYQQKPGKAPKLLISGASSLQSGVPSRFSGSGSGTDFTLTISSLQPDDFATYYCQQSYNTPRTFGQGTKVEIR
B13: M8-D05 (Fab, V domains shown)
VH: EVQLLESGGGLVQPGGSLRLSCAASGFTFSLYNMNWVRQAPGKGLEWVSSISPSGGFTDYADSVKGRFTISRDNSKNTLYLQMNSLRAEDTAVYYCARDLDLGILDYWGQGTLVTVSS
VL: DIQMTQSPSFVSASVGDRVTITCRASQDISSWLVWYQQKPGKGPKLLIYDASNLQSGVPSRFSGGGSGTHFTLTISSLQPEDFATYYCQQADGFPLTFGGGTKVEMK
B14: M8-C04 (Fab, V domains shown)
VH: EVQLLESGGGLVQPGGSLRLSCAASGFTFSYYPMQWVRQAPGKGLEWVSYIYPSGGLTSYADSVKGRFTISRDNSKNTLYLQMNSLRAEDTAVYYCARLFYGSGSVGFEYWGQGTLVTVSS
VL: QSALTQPPSVSVSPGQTASITCSGDKLGDKYTSWHQQKPGQSPVLVIYQDSKRPSGIPERFSGSNSGNTATLTISGTQAMDEADYYCQAWDSSTVFGGGTRLTVL
B15: M9-C08 (Fab, V domains shown)
VH: EVQLLESGGGLVQPGGSLRLSCAASGFTFSHYGMVWVRQAPGKGLEWVSYIVPSGGLTYYADSVKGRFTISRDNSKNTLYLQMNSLRAEDTAVYYCARVDYTGDGLGYWGQGTLVTVSS
VL: DIQMTQSPSSLSASVGDRVTITCRASQSISIYVNWYQQKPGKAPNLLIFAASSLQRGVPSRFSGSGSGADFTLTISSLQPEDFATYYCQQSFSTPLTFGGGTKVEIK
B16: M9-A03 (Fab, V domains shown)
VH: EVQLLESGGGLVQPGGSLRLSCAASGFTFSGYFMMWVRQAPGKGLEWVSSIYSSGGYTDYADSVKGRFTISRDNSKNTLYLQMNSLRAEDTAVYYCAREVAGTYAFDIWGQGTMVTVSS
VL: DIQMTQSPSSLSASLGDRVTITCRASQNIDIYLNWYQQTPGKAPKLLIYGAYNLQSGVPSRFSGSGSGTDFTLTISSLQPEDFGTYYCQQSYGTPVFGQGTKLEIK
B17: M9-C10 (Fab, V domains shown)
VH: EVQLLESGGGLVQPGGSLRLSCAASGFTFSLYPMQWVRQAPGKGLEWVSSIGSSGGMTFYADSVKGRFTISRDNSKNTLYLQMNSLRAEDTAVYYCTREVGAAGFAFDIWGQGTMVTVSS
VL: DIQMTQSPSSLSASVGDRVTITCRASQGISSYLNWYQQKPGNAPNLLIYGASSLQSGVPSRFSGSGSGTDFTLTISSLQPEDFATYYCQESYSTLFTFGPGTTVEIK

Biological target: T1, human plasma kallikrein (human, UniProt P03952 20-390; P03952 391-638)
T1 construct: two disulfide-linked chains; NP_000883.2; also called pKal; hpKal
T1 sequence (P03952 20-390 limits assumed, chain 1 of 2): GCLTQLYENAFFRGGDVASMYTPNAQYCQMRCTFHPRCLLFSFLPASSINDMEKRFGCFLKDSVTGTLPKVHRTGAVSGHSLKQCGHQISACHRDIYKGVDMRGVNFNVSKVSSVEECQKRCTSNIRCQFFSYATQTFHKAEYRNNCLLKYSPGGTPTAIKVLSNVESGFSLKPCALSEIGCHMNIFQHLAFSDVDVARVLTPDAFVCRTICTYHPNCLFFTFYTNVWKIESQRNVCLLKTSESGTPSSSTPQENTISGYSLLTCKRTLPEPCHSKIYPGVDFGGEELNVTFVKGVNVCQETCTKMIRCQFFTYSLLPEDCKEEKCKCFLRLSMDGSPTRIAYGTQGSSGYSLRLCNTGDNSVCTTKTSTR
T1 sequence (P03952 391-638 limits assumed, chain 2 of 2): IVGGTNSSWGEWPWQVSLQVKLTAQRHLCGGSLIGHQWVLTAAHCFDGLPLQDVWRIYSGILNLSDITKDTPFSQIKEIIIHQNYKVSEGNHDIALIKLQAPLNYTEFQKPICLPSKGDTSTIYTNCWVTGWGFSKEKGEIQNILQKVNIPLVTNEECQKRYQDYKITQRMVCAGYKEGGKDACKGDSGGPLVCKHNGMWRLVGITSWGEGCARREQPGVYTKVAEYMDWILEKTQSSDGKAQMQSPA
Assay: ELISA, biotinylated pKal signal over streptavidin background

| Binder | ELISA (T/B) |
| --- | --- |
| B1 | 7 |
| B2 | 18.5 |
| B3 | 10.9 |
| B4 | 4.8 |
| B5 | 3.3 |
| B6 | 16 |
| B7 | 28.2 |
| B8 | 18.8 |
| B9 | 8.4 |
| B10 | 35.9 |
| B11 | 8.8 |
| B12 | 5.5 |
| B13 | 11.9 |
| B14 | 44.7 |
| B15 | 10.9 |
| B16 | 14.4 |
| B17 | 7.8 |
